The source of these data is article PMC9592559 (Structure(London, England:1993), 2022).

This series deals with the molecule itself. Description: SEC; analytical gel filtration of TOP2B (45–444) in the presence and absence of AMPPNP. On the technique in general: Size exclusion chromatography separates by hydrodynamic size, large species first.

B1: human TOP2B ATPase domain (45–444) (domain or fragment, UniProt Q02880-2 45-444, looked up)
chain: SVERVYQKKTQLEHILLRPDTYIGSVEPLTQFMWVYDEDVGMNCREVTFVPGLYKIFDEILVNAADNKQRDKNMTCIKVSIDPESNIISIWNNGKGIPVVEHKVEKVYVPALIFGQLLTSSNYDDDEKKVTGGRNGYGAKLCNIFSTKFTVETACKEYKHSFKQTWMNNMMKTSEAKIKHFDGEDYTCITFQPDLSKFKMEKLDKDIVALMTRRAYDLAGSCRGVKVMFNGKKLPVNGFRSYVDLYVKDKLDETGVALKVIHELANERWDVCLTLSEKGFQQISFVNSIATTKGGRHVDYVVDQVVGKLIEVVKKKNKAGVSVKPFQVKNHIWVFINCLIENPTFDSQTKENMTLQPKSFGSKCQLSEKFFKAASNCGIVESILNWVKFKAQTQLNKKCS
notes: Cloned by LIC into the pET His6 MBP Asn10 TEV LIC vector (1C), Addgene plasmid 29654; The models hold residues 46–429 (7QFO), 47–422 (7QFN) and 45–422 (7ZBG); not shown: His6, N-terminal, cleaved; MBP, N-terminal, cleaved
In the case of B1, the “stoichiometry N” value stood at 2.

As a reminder, the stoichiometry N is the number of molecules, sites or subunits per partner or assembly.
